Consider 1 molecule from patent publication US20200385425A1.

This test has as its target PDZ1/2 domain (Homo sapiens (Human)), P78352. As to the kind of experiment: SPR, Biacore 3000, PDZ1/2 amine-coupled on CM5 chip, peptide as analyte, 1:1 binding model. In general terms: SPR reads the build-up and loss of mass on a sensor chip optically.

PDZ1/2 domain (Homo sapiens (Human)), P78352, sequence (P78352 65-246 limits assumed): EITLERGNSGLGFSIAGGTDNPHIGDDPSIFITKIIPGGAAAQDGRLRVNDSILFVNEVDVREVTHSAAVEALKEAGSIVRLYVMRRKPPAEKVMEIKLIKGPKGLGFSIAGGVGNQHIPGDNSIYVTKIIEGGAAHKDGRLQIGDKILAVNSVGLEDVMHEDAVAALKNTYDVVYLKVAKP

Take YGRKKRRQRRRYEKLSSIESDV (modifications not checked) [chimeric peptide YE-NA-1]: the Kd is 54.4 nM.

A word on the Kd: it is the concentration at which binding is half-saturated.
